Assay results reported in paper PMC9122904, “Insights into the client protein release mechanism of the ATP-independent chaperone Spy” (Nature Communications, 2022).
Residue numbers refer to the chain shown, from its start. Names may count otherwise.

What was measured:
Test in all cases: BLI; Octet RED96; client biotinylated and loaded on streptavidin sensors; Spy or Spy variant in solution at 0.25, 0.5, 1, 1.5 and 2 μM; 40 mM HEPES, 150 mM NaCl, pH 7.5; Kd calculated as koff/kon
Settings in all cases: both partners purified
Spy D26R = biological target: T1, Spy D26R (UniProt P77754 24-161, D26R)
T1 construct: source: E. coli BL21 (DE3), purified (Ni-NTA, cation exchange, SEC); not shown: His6, N-terminal, cleaved; SUMO, N-terminal, cleaved
T1 sequence (looked up): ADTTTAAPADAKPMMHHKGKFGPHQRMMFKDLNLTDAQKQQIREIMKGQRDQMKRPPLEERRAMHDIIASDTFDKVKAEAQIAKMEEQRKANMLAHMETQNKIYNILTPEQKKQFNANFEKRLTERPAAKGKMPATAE

Spy D26K [1] = biological target: T2, Spy D26K (UniProt P77754 24-161, D26K)
T2 construct: source: E. coli BL21 (DE3), purified (Ni-NTA, cation exchange, SEC); not shown: His6, N-terminal, cleaved; SUMO, N-terminal, cleaved
T2 sequence (looked up): T1 sequence (looked up) with R26K

Spy D26K [2] = biological target: T2, Spy D26K; remark: listed apart in the source
Spy_(29-124) R89D = biological target: T3, Spy_(29-124) R89D (UniProt P77754 52-147, R89D)
T3 construct: source: E. coli BL21 (DE3), purified (Ni-NTA, cation exchange, SEC); not shown: His6, N-terminal, cleaved; SUMO, N-terminal, cleaved
T3 sequence (looked up): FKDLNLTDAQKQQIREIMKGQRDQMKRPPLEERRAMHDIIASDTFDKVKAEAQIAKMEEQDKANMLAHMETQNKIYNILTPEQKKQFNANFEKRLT

Spy_(29-124) K121D R122D = biological target: T4, Spy_(29-124) K121D R122D (UniProt P77754 52-147, K121D | R122D)
T4 construct: source: E. coli BL21 (DE3), purified (Ni-NTA, cation exchange, SEC); not shown: His6, N-terminal, cleaved; SUMO, N-terminal, cleaved
T4 sequence (looked up): T3 sequence (looked up) with D61R, K93D, R94D

Spy_(29-124) K54D R55D = biological target: T5, Spy_(29-124) K54D R55D (UniProt P77754 52-147, K54D | R55D)
T5 construct: source: E. coli BL21 (DE3), purified (Ni-NTA, cation exchange, SEC); not shown: His6, N-terminal, cleaved; SUMO, N-terminal, cleaved
T5 sequence (looked up): T3 sequence (looked up) with K26D, R27D, D61R

Spy_(29-124) K75D = biological target: T6, Spy_(29-124) K75D (UniProt P77754 52-147, K75D)
T6 construct: source: E. coli BL21 (DE3), purified (Ni-NTA, cation exchange, SEC); not shown: His6, N-terminal, cleaved; SUMO, N-terminal, cleaved
T6 sequence (looked up): T3 sequence (looked up) with K47D, D61R

Spy_(29-124) H96D = biological target: T7, Spy_(29-124) H96D (UniProt P77754 52-147, H96D)
T7 construct: source: E. coli BL21 (DE3), purified (Ni-NTA, cation exchange, SEC); not shown: His6, N-terminal, cleaved; SUMO, N-terminal, cleaved
T7 sequence (looked up): T3 sequence (looked up) with D61R, H68D

Spy_(29-124) R50D = biological target: T8, Spy_(29-124) R50D (UniProt P77754 52-147, R50D)
T8 construct: source: E. coli BL21 (DE3), purified (Ni-NTA, cation exchange, SEC); not shown: His6, N-terminal, cleaved; SUMO, N-terminal, cleaved
T8 sequence (looked up): T3 sequence (looked up) with R22D, D61R

Spy_(29-124) R43D = biological target: T9, Spy_(29-124) R43D (UniProt P77754 52-147, R43D)
T9 construct: source: E. coli BL21 (DE3), purified (Ni-NTA, cation exchange, SEC); not shown: His6, N-terminal, cleaved; SUMO, N-terminal, cleaved
T9 sequence (looked up): T3 sequence (looked up) with R15D, D61R

Spy_(29-124) R61D R62D = biological target: T10, Spy_(29-124) R61D R62D (UniProt P77754 52-147, R61D | R62D)
T10 construct: source: E. coli BL21 (DE3), purified (Ni-NTA, cation exchange, SEC); not shown: His6, N-terminal, cleaved; SUMO, N-terminal, cleaved
T10 sequence (looked up): T3 sequence (looked up) with R33D, R34D, D61R

B1: Im7 H40W L53A I54A (natural protein)
chain: MELKNSISDYTEAEFVQLLKEIEKENVAATDDVLDVLLEWFVKITEHPDGTDAAYYPSDNRDDSPEGIVKEIKEWRAANGKPGFKQG
modifications: biotin (EZ-link NHS-biotin, 1:1 molar ratio of biotin to protein)
notes: Im7 (colicin E7 immunity protein) with H40W L53A I54A; Spy was made with an N-terminal His6-SUMO tag that was cleaved; also called Im7AAW; partially folded client; source: purified by a similar procedure to Spy
Spy D26R
  Kd: 0.286 µM
Spy D26K [1]
  Kd: 0.257 µM
Spy D26K [2]
  koff: 0.0775 s⁻¹
Spy_(29-124) R89D
  Kd: 2.61 µM
Spy_(29-124) K121D R122D
  Kd: 1.85 µM
Spy_(29-124) K54D R55D
  Kd: 1.9 µM
Spy_(29-124) K75D
  Kd: 0.456 µM
Spy_(29-124) H96D
  Kd: 1.26 µM
Spy_(29-124) R50D
  Kd: 2.68 µM
Spy_(29-124) R43D
  Kd: 3.07 µM
Spy_(29-124) R61D R62D
  Kd: 3.54 µM
